Earlier results, collected in article PMC6684861 (Traffic (Copenhagen, Denmark), 2018).

Test system: mouse embryonic fibroblasts
Settings: ref unpublished observations

B1: DNA polymerase λ (protein, UniProt Q9UGP5 1-575, looked up)
DNA polymerase lambda: MDPRGILKAFPKRQKIHADASSKVLAKIPRREEGEEAEEWLSSLRAHVVRTGIGRARAELFEKQIVQHGGQLCPAQGPGVTHIVVDEGMDYERALRLLRLPQLPPGAQLVKSAWLSLCLQERRLVDVAGFSIFIPSRYLDHPQPSKAEQDASIPPGTHEALLQTALSPPPPPTRPVSPPQKAKEAPNTQAQPISDDEASDGEETQVSAADLEALISGHYPTSLEGDCEPSPAPAVLDKWVCAQPSSQKATNHNLHITEKLEVLAKAYSVQGDKWRALGYAKAINALKSFHKPVTSYQEACSIPGIGKRMAEKIIEILESGHLRKLDHISESVPVLELFSNIWGAGTKTAQMWYQQGFRSLEDIRSQASLTTQQAIGLKHYSDFLERMPREEATEIEQTVQKAAQAFNSGLLCVACGSYRRGKATCGDVDVLITHPDGRSHRGIFSRLLDSLRQEGFLTDDLVSQEENGQQQKYLGVCRLPGPGRRHRRLDIIVVPYSEFACALLYFTGSAHFNRSMRALAKTKGMSLSEHALSTAVVRNTHGCKVGPGRVLPTPTEKDVFRLLGLPYREPAERDW
  nuclear/cytosolic ratio in mouse embryonic fibroblasts: 8
